In patent US20200031927A1:

Legend:
[1] = target: soluble KIR3DL1*002-Fc (human) (UniProt P43629); test: SPR (BIACORE T-100), kinetics
[2] = target: soluble KIR3DL1*002-Fc (human) (UniProt P43629); test: SPR (BIACORE T-100)
[3] = target: soluble KIR3DL1*001-Fc (human) (UniProt P43629); test: SPR (BIACORE T-100)
[4] = target: soluble KIR3DL1*033-Fc (human) (UniProt P43629); test: SPR (BIACORE T-100)
Sequence of soluble KIR3DL1*033-Fc (human) (P43629 other isoform, or with tags, fused parts or gaps): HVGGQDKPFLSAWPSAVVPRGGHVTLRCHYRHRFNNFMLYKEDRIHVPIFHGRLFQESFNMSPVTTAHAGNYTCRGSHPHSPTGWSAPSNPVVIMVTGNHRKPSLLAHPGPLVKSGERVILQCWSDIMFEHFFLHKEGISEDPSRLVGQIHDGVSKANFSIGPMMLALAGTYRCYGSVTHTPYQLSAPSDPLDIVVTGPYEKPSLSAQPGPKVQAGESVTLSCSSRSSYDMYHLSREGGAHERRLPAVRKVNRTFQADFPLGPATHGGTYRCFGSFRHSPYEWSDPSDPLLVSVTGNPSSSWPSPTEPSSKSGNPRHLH

Sequence of soluble KIR3DL1*002-Fc (human) (P43629 other isoform, or with tags, fused parts or gaps): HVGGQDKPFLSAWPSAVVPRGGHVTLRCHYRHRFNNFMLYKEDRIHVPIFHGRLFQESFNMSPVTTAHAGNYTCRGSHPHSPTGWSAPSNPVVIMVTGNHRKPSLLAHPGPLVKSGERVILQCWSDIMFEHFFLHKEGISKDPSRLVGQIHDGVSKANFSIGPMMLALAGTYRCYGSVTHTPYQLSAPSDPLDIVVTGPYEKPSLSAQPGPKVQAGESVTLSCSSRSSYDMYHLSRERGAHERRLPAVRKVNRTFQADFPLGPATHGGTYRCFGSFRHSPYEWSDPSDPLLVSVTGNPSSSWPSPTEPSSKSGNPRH

Substance: DX9 (PHB4385) (antibody)
- Kd [1]: 30.6 nM
- koff [1]: 0.000992 s⁻¹
- kon [1]: 32400 M⁻¹ s⁻¹
- Kd [2]: 30.6 nM
- Kd [3]: 14.1 nM
- Kd [4]: 8.6 nM
